# Source: article doi:10.1101/2022.05.06.490860 (bioRxiv, 2022)
# B1: Bacillus subtilis YjoB (residues 1-423) (natural protein, B. subtilis 168, UniProt O34703 1-423, looked up)
# chain: MTNIPFIYQYEEKENERAAAGYGTFGYLITRIEETLYDQYGVFYELYASDDPNTEYWELLVEDVRSGSLEPEHVAYIFEKLEKKTFAYDEDEKEPDYTVHKSIRNSVYAYPEKGVAFARIPYFQDGSIMSFDCLFAVNDEKMRAFLEGVRPRLWEKSKRKVTVFTDGDGGTSREQEAIVREVQRSQVIMNPLLKKEIYRSIDQFFHSDKSFYQTYDIPYKRGILLYGPPGNGKTTLVKSIAGSIDAPVAYWQITEFTSSETIEEVFQAARRLAPAVLVIEDIDSMPEDVRSFFLNTLDGATSKEGLFLIGTTNYPEEIDPGLMNRAGRFDRAYEIGLPDEELRLEYMKMRGFGIFLSEGEIKNAAKLTEGFSFAQLGELYVSSALQWHQEGNHHIETMVKDMTGEQRKSQRGSWMERNKVGFH
# B2: YjoB-AAA domain (residues 159-423) (domain or fragment, B. subtilis 168, UniProt O34703 159-423, looked up)
# chain: RKVTVFTDGDGGTSREQEAIVREVQRSQVIMNPLLKKEIYRSIDQFFHSDKSFYQTYDIPYKRGILLYGPPGNGKTTLVKSIAGSIDAPVAYWQITEFTSSETIEEVFQAARRLAPAVLVIEDIDSMPEDVRSFFLNTLDGATSKEGLFLIGTTNYPEEIDPGLMNRAGRFDRAYEIGLPDEELRLEYMKMRGFGIFLSEGEIKNAAKLTEGFSFAQLGELYVSSALQWHQEGNHHIETMVKDMTGEQRKSQRGSWMERNKVGFH
# What was measured:
# [1] = target: KatA, dimer form (KatA-2) (B. subtilis) (UniProt P26901); test: SEC
# [2] = target: YjoB-NTD (residues 1-159), oligomer form NTD-1 (B. subtilis 168) (UniProt O34703); test: crystal structure
# crystal structure = target: the molecule itself; test: crystal structure
# [3] = target: T1, KatA, monomeric form (KatA-1) (B. subtilis, UniProt P26901 1-483); test: SEC
# T1 sequence (looked up): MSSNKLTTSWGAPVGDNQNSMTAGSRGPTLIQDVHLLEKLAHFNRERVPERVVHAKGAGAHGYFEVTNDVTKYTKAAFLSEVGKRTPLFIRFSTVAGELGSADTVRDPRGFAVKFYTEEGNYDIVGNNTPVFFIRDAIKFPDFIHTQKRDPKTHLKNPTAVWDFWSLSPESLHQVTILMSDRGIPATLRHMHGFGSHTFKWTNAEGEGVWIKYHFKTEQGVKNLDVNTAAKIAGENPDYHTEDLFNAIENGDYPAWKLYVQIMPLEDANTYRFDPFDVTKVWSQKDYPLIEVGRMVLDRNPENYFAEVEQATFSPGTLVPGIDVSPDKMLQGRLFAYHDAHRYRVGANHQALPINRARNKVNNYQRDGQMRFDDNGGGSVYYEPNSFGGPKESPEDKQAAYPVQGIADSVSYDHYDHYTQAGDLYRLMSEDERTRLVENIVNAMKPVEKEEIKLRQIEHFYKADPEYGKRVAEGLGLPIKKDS
# SEC = target: the molecule itself; test: SEC
molecule,measurement,setting,value
"KatA, dimer form (KatA-2) (from UniProt P26901 1-483) (enzyme)",stoichiometry N,[1],2
"YjoB-NTD (residues 1-159), oligomer form NTD-1 (from UniProt O34703 1-159) (domain or fragment)",stoichiometry N,[2],12
B1,stoichiometry N,crystal structure,6
same,binding result,[3],binds
B2,stoichiometry N,SEC,6
